Reference: patent publication US10087225B2, “Formulation of MK2 inhibitor peptides” (MOERAE MATRIX, INC., priority 2015, dated 2018)

Assays:
Assay in all cases: Kinase Profiling Assay
Assay type in all cases: biochemical
Flt3(D835Y)(h) = Flt3(D835Y)(h) (Homo sapiens, UniProt P36888, D835Y)
MRCKα(h) = MRCKα(h) (Homo sapiens, UniProt Q5VT25)
Snk(h) = Snk(h) (Homo sapiens, UniProt Q9NYY3)
AMPKa2(h) = AMPKa2(h) (Homo sapiens, UniProt P54646); conditions: 100 μM
CDK7/cyclinH/MAT1(h) = CDK7/cyclinH/MAT1(h) (Homo sapiens, UniProt P50613); conditions: 100 μM
IRAK1(h) = IRAK1(h) (Homo sapiens, UniProt P51617); conditions: 100 μM
LKB1(h) = target: T1, LKB1(h) (Homo sapiens, UniProt Q15831); conditions: 100 μM
T1 sequence (Q15831 1-433): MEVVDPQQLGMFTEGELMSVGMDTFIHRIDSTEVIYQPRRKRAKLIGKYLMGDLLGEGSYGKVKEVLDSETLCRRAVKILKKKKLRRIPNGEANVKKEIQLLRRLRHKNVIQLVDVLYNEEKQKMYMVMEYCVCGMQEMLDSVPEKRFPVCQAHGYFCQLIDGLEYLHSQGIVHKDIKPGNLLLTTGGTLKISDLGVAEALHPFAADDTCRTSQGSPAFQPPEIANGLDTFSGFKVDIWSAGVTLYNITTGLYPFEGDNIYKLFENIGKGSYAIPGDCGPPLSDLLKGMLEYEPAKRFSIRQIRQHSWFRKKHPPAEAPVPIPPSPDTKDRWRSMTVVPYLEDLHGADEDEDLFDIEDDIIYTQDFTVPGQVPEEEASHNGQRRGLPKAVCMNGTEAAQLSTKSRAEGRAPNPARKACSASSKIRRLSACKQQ
T1 sequence (Q7RTN6 1-431 partner): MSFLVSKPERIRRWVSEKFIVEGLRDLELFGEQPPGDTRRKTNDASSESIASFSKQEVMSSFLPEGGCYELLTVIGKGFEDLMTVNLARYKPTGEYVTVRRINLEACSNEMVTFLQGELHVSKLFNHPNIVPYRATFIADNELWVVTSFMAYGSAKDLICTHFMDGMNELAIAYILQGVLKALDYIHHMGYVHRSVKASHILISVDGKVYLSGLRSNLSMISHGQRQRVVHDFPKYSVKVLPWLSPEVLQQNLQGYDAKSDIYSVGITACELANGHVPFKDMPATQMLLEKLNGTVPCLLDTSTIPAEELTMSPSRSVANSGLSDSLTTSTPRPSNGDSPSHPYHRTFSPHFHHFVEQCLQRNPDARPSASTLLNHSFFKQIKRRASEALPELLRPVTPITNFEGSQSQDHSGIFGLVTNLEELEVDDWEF
T1 sequence (Q9Y376 1-341 partner): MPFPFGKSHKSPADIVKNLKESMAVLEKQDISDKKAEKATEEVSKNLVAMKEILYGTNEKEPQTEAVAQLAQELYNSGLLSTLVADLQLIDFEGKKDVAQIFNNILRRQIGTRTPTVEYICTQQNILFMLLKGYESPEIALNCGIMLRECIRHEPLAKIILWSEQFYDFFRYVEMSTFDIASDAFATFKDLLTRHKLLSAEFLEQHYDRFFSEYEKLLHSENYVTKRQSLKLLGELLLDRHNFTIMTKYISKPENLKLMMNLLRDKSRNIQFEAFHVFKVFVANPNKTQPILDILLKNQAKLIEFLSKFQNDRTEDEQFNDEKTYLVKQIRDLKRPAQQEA

PDGFRα(h) = PDGFRα(h) (Homo sapiens, UniProt P16234); conditions: 100 μM
PKA(h) = PKA(h) (Homo sapiens, UniProt P17612); conditions: 100 μM
PKCα(h) = PKCα(h) (Homo sapiens, UniProt P17252); conditions: 100 μM
RIPK2(h) = RIPK2(h) (Homo sapiens, UniProt O43353); conditions: 100 μM
Ros(h) = Ros(h) (Homo sapiens, UniProt P08922); conditions: 100 μM
TBK1(h) = target: T2, TBK1(h) (Homo sapiens, UniProt Q9UHD2); conditions: 100 μM
T2 sequence (Q9UHD2 1-729): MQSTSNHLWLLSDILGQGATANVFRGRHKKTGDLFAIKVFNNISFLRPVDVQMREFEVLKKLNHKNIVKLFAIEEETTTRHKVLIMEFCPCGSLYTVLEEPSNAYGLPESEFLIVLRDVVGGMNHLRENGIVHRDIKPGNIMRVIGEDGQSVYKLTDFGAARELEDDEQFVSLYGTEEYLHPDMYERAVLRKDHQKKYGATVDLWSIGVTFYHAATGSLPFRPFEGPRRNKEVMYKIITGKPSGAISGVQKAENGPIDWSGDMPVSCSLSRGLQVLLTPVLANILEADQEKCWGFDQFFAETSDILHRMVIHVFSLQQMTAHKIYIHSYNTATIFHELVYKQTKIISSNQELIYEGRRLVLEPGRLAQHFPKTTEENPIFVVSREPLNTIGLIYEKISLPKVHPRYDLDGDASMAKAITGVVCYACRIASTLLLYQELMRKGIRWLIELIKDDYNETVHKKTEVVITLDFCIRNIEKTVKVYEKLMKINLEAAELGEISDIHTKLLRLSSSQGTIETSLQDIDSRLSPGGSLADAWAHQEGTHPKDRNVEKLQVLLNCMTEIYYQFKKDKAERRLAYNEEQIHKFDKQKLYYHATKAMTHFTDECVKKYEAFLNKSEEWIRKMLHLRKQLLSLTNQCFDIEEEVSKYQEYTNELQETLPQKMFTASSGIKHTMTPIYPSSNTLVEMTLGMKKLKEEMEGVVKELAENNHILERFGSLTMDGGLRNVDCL

PDGFRα(h), sequence (P16234 24-1089): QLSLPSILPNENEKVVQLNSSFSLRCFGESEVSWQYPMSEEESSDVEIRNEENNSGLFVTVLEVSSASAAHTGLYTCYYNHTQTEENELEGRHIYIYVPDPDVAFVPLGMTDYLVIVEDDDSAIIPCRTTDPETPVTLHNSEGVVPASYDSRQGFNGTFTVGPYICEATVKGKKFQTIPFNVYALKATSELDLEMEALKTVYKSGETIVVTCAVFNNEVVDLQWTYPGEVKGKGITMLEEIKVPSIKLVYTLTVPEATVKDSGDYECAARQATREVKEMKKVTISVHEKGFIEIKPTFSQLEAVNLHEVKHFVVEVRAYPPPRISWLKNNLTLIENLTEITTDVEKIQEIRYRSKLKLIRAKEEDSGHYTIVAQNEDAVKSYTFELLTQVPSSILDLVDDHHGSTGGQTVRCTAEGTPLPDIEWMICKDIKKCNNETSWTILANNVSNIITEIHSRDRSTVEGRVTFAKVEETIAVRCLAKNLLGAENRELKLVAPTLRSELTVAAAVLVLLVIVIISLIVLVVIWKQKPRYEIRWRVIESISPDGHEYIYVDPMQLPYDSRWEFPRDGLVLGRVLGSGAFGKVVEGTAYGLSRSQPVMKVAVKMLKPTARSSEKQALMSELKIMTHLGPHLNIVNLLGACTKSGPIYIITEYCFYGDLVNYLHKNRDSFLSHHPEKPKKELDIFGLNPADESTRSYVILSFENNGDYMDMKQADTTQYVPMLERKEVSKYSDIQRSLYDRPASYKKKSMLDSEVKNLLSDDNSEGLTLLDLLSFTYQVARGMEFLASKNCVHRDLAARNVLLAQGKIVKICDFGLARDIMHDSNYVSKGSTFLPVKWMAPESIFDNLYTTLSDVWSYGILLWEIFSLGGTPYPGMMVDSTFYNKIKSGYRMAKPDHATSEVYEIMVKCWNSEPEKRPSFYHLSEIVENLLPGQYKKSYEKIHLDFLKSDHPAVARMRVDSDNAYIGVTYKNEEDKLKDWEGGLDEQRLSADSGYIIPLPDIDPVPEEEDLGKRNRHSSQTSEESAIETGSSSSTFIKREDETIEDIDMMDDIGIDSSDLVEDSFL
Ros(h), sequence (P08922 28-2347): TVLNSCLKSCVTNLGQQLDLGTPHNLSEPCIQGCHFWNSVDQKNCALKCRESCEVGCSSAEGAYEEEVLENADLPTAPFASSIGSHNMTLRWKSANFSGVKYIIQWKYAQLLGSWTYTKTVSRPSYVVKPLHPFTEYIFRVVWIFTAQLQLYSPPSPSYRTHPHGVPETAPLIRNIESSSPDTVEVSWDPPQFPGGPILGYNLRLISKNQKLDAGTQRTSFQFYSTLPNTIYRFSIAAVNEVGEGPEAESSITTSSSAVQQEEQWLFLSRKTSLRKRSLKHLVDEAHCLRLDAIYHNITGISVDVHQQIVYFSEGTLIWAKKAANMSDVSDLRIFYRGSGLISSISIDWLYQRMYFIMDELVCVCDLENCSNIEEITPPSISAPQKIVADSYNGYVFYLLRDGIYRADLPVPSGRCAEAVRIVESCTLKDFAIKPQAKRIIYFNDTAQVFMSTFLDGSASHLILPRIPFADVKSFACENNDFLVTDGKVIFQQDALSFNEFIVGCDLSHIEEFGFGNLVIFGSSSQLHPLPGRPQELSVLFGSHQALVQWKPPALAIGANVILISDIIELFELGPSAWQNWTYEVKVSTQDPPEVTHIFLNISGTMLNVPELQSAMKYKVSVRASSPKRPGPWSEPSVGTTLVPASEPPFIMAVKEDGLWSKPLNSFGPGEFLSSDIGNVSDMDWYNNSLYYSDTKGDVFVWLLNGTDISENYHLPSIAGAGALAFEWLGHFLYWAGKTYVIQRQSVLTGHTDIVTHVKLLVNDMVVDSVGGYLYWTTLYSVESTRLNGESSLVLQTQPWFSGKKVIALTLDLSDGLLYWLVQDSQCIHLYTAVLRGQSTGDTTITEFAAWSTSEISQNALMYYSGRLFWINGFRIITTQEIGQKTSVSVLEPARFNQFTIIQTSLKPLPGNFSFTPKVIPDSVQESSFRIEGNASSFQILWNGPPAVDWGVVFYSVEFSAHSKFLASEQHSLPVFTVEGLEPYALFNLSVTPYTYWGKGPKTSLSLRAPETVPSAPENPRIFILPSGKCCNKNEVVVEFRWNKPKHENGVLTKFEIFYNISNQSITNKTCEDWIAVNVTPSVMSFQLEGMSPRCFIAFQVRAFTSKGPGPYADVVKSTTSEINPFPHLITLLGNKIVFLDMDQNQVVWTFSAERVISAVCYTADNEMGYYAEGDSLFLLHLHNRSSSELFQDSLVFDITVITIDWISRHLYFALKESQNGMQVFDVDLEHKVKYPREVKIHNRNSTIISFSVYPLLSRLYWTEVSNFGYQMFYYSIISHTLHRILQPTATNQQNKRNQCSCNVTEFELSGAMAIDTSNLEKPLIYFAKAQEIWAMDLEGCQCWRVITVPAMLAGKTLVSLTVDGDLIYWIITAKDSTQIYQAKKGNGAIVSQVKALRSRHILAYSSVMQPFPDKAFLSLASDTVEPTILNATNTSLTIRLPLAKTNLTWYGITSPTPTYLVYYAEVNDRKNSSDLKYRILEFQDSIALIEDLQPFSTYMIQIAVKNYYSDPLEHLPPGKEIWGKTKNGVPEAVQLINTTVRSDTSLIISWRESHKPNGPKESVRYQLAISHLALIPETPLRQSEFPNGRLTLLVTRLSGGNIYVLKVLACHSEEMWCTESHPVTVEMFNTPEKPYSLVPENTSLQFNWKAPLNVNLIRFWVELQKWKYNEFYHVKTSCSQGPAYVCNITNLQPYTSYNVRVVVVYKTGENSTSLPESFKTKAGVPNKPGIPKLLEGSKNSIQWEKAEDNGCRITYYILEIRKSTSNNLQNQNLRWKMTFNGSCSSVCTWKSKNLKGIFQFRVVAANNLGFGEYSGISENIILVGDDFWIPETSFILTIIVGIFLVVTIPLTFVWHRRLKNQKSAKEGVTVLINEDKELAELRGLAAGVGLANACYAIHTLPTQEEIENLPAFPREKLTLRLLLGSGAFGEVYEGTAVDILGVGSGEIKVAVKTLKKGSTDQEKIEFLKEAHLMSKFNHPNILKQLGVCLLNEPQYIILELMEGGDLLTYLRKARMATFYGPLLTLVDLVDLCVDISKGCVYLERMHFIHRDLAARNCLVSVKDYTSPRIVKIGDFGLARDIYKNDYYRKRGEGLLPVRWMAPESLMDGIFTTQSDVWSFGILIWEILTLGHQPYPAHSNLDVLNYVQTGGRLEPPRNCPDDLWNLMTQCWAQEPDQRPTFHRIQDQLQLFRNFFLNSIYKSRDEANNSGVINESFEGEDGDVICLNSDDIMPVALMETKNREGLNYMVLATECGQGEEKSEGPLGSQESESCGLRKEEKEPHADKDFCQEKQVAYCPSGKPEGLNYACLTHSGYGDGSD
Snk(h), sequence (Q9NYY3 whole entry): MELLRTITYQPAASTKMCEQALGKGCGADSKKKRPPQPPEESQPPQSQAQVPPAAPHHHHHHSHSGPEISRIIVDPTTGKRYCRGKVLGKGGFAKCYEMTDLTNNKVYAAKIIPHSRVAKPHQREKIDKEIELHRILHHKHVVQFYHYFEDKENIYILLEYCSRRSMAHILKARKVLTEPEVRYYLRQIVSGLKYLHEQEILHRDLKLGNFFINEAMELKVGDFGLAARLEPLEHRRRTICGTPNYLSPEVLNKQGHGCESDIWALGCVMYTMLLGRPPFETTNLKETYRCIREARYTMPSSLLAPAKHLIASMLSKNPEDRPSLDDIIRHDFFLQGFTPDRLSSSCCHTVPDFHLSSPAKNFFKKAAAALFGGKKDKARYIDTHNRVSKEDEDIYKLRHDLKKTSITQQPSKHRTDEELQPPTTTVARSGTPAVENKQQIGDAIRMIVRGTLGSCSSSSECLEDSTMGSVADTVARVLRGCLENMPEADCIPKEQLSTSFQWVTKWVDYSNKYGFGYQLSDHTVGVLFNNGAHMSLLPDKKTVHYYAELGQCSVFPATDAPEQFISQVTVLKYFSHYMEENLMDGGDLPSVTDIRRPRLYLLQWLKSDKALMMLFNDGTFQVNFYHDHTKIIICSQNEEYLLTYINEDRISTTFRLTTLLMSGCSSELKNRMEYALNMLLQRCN
IRAK1(h), sequence (P51617 whole entry): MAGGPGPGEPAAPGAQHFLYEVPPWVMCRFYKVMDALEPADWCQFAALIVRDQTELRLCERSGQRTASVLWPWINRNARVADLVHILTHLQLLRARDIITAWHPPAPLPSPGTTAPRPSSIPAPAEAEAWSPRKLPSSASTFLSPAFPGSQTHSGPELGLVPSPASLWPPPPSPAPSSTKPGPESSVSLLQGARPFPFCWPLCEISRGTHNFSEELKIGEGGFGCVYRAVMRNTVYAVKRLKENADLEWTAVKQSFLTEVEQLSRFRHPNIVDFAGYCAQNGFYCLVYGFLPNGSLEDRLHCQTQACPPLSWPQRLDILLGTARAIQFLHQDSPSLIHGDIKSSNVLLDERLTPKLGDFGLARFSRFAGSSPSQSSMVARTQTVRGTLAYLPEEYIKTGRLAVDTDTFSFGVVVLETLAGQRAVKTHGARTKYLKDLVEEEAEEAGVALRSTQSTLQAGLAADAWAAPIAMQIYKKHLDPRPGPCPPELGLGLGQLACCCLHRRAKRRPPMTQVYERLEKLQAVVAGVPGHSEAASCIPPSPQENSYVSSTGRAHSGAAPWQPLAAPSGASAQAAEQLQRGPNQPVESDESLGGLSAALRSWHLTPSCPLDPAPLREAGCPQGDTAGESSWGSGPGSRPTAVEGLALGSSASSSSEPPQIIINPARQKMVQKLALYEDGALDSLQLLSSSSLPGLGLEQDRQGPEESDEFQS

| Substance | activity at 100 µM (Flt3(D835Y)(h)) [%] | activity at 100 µM (MRCKα(h)) [%] | activity at 100 µM (Snk(h)) [%] | % activity (AMPKa2(h)) [%] | % activity (CDK7/cyclinH/MAT1(h)) [%] | % activity (Flt3(D835Y)(h); 100 μM) [%] | % activity (IRAK1(h)) [%] | % activity (LKB1(h)) [%] | % activity (MRCKα(h); 100 μM) [%] | % activity (PDGFRα(h)) [%] | % activity (PKA(h)) [%] | % activity (PKCα(h)) [%] | % activity (RIPK2(h)) [%] | % activity (Ros(h)) [%] | % activity (Snk(h); 100 μM) [%] | % activity (TBK1(h)) [%] |
| --- | --- | --- | --- | --- | --- | --- | --- | --- | --- | --- | --- | --- | --- | --- | --- | --- |
| H-YARAAARQARAKALARQLGVAA-OH [MMI-0100] | 120 | 98 | 94 | – | – | – | – | – | – | – | – | – | – | – | – | – |
| HRRIKAWLKKIKALARQLGVAA (Mammalian) [MMI-0500] | – | – | – | 9 | 15 | 65 | 5 | 51 | 5 | 40 | 118 | 3 | 30 | 150 | 122 | 16 |
| YARAAARQARAKALNRQLGVA (Mammalian) [MMI-0200] | – | – | – | 88 | 67 | – | 101 | 99 | – | 108 | 110 | 100 | 98 | 86 | – | 98 |
